Target: Conjugate 45b (human, UniProt P0DOX5 203-448 = IgG part)
Test: ELISA

B1: murine Fcγ RIIb (receptor, mouse, UniProt P08101 30-210, looked up)
chain: THDLPKAVVKLEPPWIQVLKEDTVTLTCEGTHNPGNSSTQWFHNGRSIRSQVQASYTFKATVNDSGEYRCQMEQTRLSDPVDLGVISDWLLLQTPQLVFLEGETITLRCHSWRNKLLNRISFFHNEKSVRYHHYSSNFSIPKANHSHSGDYYCKGSLGRTLHQSKPVTITVQGPKSSRSLP
notes: also called mouse FcγR2B/CD32b
**Q.** Does B1 bind?
**A.** binds

B2: human Fcγ RIIb (receptor, UniProt P31994 43-217, looked up)
chain: TPAAPPKAVLKLEPQWINVLQEDSVTLTCRGTHSPESDSIQWFHNGNLIPTHTQPSYRFKANNNDSGEYTCQTGQTSLSDPVHLTVLSEWLVLQTPHLEFQEGETIVLRCHSWKDKPLVKVTFFQNGKSKKFSRSDPNFSIPQANHSHSGDYHCTGNIGYTLYSSKPVTITVQAP
**Q.** Does B2 bind?
**A.** binds
